Assay results published in PMC9271190.
Where two headings read alike, the source gives them in different places.

T1: HERV-K reverse transcriptase (RT) (Human endogenous retrovirus K (Homo …, UniProt V9H0F6 1-596))
T1 sequence: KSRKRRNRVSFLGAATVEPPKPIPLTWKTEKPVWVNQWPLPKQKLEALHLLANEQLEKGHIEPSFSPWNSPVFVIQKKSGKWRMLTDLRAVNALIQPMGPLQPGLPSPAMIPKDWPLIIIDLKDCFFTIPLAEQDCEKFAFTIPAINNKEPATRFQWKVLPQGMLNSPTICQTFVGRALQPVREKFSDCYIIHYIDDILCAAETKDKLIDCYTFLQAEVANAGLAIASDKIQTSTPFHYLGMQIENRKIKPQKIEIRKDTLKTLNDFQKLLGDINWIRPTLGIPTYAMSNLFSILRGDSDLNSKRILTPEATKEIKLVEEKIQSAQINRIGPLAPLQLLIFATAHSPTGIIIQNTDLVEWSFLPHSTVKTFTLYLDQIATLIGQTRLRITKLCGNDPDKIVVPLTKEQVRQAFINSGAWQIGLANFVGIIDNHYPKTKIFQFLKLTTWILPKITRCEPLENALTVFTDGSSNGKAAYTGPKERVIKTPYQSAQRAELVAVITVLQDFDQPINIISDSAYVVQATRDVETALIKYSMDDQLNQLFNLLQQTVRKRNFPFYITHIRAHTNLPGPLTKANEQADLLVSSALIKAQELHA


Experiments:
[1] = molecular target: T1, HERV-K reverse transcriptase (RT); assay: X-ray crystallography
[2] = molecular target: T1, HERV-K reverse transcriptase (RT); assay: X-ray crystallography; remark: listed apart in the source

Binder | binding result [1] | binding result [2]
U5-PBS DNA template/primer, unextended (primer ends in G) (dsDNA) DNA 1: GGGACCTGAAAGCGAAAGGGAAAC DNA 2: GTTTCCCTTTCGCTTTCAGG | binds | –
U5-PBS DNA template/primer extended by ddT (dsDNA, primer 3'-terminal 2',3'-dideoxy-T (incorporated from ddTTP)) DNA 1: GGGACCTGAAAGCGAAAGGGAAAC DNA 2: GTTTCCCTTTCGCTTTCAGGT | – | binds
